# Molecular target: GST-TDRD3-Tdr E691K (human)
# Experiment: pull-down
row,Substance,percent reduction of binding against wild-type GST-TDRD3-Tdr
1,Eukaryotic translation elongation factor 1 alpha 1 (from UniProt P68104 1-462) (natural protein),90%
2,DEAD/H box-3 (from UniProt O00571-1 1-662) (natural protein),50%
